From the RNAGym collection of RNA variant scans (doi:10.1073/pnas.2313332121)
Variants at the floor of the assay were thinned out.

B1: TPR 5TU (parent)
chain: GGAUCUUCUCGAUCUAACAAAAAAGACAAAUCUGCCACAAAGCUUGAGAGCAUCUUCGGAUGCAGAGGCGGCAGCCUUCGGUGGCGCGAUAGCGCCAACGUUCUCAACUAUGACACGCAAAACGCGUGCUCCGUUGAAUGGAGUUUAUCAUG

Variants of: B1
Test: polymerase ribozyme fitness, log enrichment relative to wild type (log ratio); higher = more active; in vitro selection for triplet polymerase activity
In short: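 PCR was used to build mutant libraries for each subunit of a heterodimeric triplet polymerase ribozyme, which were then transcribed. A single in vitro selection round, in triplicate, used a frozen incubation at −7 °C and recovered extended constructs by gel excision, streptavidin beads and RT-PCR. Fitness is the logarithm of genotype enrichment relative to wild-type enrichment, averaged over replicates with inverse-variance weights. The logarithm is base 2, and after Illumina sequencing only genotypes with ≥10 input reads and ≥1 read per output were kept.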

Variant	polymerase ribozyme fitness (log ratio)
GGAUCUUCUCGAUCUAACAAAAAAGACAAAACUGCCACAAAGCUUGAGAGCAUCUUCGGAUGCAGAGGCGGCAGCCUUCGGUGGAGCGAUAGCGCCAACGUUCUCAACUAUGACACGCAAAACGCGUGCUCCGUUGAAUGGAGUUUAUCAUG [U31A C85A]	-0.724
GGAUCUUCUCGAUCUAACAAAAAAGACAAAACUGCCACAAAGCUUGAGAGCAUCUUCGGAUGCAGAGGCGGCAGCUUUCGGUGGCGCGAUAGGGCCAACGUUCUCAACUAUGACACGCAAAACGCGUGCUCCGUUGAAUGGAGUUUAUCAUG [U31A C76U C93G]	-2.71
GGAUCUUCUCGAUCUAACAAAAAAGACAAAACUGCCACAAAGCUUGAGAGCAUCUUCGGAUGCAGAGGAGGCAGCCUUCGGUGGCGCGAUAGCGACAACGUUCUCAACUAUGACAGGCAAAACGCGUGCUCCGUUGAAUGGAGUUUAUCAUG [U31A C69A C95A C116G]	-2
GGAUCUUCUCGAUCUAACAAAAAAGACAAAACUGCCACAAAGCUUGAGAGCAUCUUCGGAUGCAGAGGCGGCAGCCUUCGGUGGCGGGAUAGCGCCAACGUUCUCAACUAUGAAACGCAAAACGCGUGCUCCGUUGAAUGGAGUUUAUCAUG [U31A C87G C114A]	-4.03
GGAUCUUCUCGAUCUAACAAAAAAGACAAAACUGCCACAAAGCUUGAGAGCAUCUUAGGAUGCAGAGGCGGCAGCCUUCGGUGGCGUGAUAGCGCCCACGUUCUCAACUAUGACACACUAAACGCGUGCUCCGUUGAAUGGAGUUUAUCAUG [U31A C57A C87U A97C G117A A119U]	1.02
GGAUCUUCUCGAUCUAACAAAAAAGACAAAACUGCCACAAAGCUUGAGAGCAUCUUCGGAUGCAGAGGCGGCAGCCUUCGGUGGCGCGCUAGCGCCAACGUUCUCAACUAUGACACGCAAAACGCGUGCUCCGUUGAAUGGAGUUUAUCAUG [U31A A89C]	-0.512
GGAUCUUCUCGAUCUAACAAAAAAGACAAAACUGCCACAAAGCUUGAGAGCAUGUUAGGAUGCAGAGGCGGCAGCCUUCGGUGGGGCGAUAGCGCCAACGUUCUCAACUAUGACACGCAAAAUGCGUGCUCCGUUGAAUGGAGUUUAUCAUG [U31A C54G C57A C85G C123U]	-3.47
GGAUCUUCUCGAUCUAACAAAAAAGACAAAACUGCCAAAAAGCUUGAGACCAUCUUCGGAUGCAGAGGCGGCAGCCUUCGGUGGUGCGAUAGCGCCAACGUUCUCAACUAUGACACGCAAAACGCGUGCUCCGUUGAAUGGAGUUUAUCAUG [U31A C38A G50C C85U]	≤ -4.2
GGAUCUUCUCGAUCUAACAAAAAAGACAAAACUGCCACAAAGCUUGAGAGCAUCUUCGGAUGCAGAGGCGGCAGCCUUCGGUGGGGCGAUAGCGCGAACGUUCUCAACUAUGACACGCAAAACGCGUGCUCCGUUGAAUGGCGUUUAUCAUG [U31A C85G C96G A142C]	≤ -4.2
GGAUCUUCUCGAUCUAACAAAAAAGACAAAACUGCCACAAAGCUUGAGAGGAUCUUCGGAUGCAGAGGCGGCAGCCUUCGGUGGCGCGAUAGCGCCAACGUUCUCAACUAUGACACGCAAAACGCGUGCUCCGUUGAAUGGAGUUUAUCAUG [U31A C51G]	-0.943
GGAUCUUCUCGAUCUAACAAAAAAGACAAAACUGCCACAAAGCUUGAGGGCAUCAUCGUAUGCAGAGGCGGCAGCCUUCGGUGGCGCGAUAGCGCGAACGUUCUCAACUAUGACACGCAAAACGCGUGCUCCGUUGAAUGGAGUUUAUCAUG [U31A A49G U55A G59U C96G]	-1.89
GGAUCUUCUCGAUCUAACAAAAAAGACAAAACUGCCACAAAGCUUGAGAGCAUCUUCGGAUGCAGAGGGGGCAGCCUUCGGUGGCGCGUUAGCGCGAACGUUCACAACUAUGACACGCAAAACGCGUGCUCCGUUGAAUGGAGUUUAUCAUG [U31A C69G A89U C96G U104A]	-3.89
GGAUCUUCUCGAUCUAACAAAAAAGACAAAACUGCCACAAAGCUUGAGAGCAUCUUCGGAUGCAGAGGCGGCUGCCUUCGGUGGCGCGAUAGCGGCAACGUUCUCAACUAUGACACGCAAAACGCGUGCUCCGUUGAAUGGAGUUUAUCAUG [U31A A73U C95G]	-3.66
GGAUCUUCUCGAUCUAACAAAAAAGACAAAACUGCAACAAAGCUUGAGAGCGUCUUCGGAUGCAGAGGCGGCAGCAUUCGGUGGCGCGAUAGCGUCAACGUUCUCAACUAUGACACGCAAAACACGUGCUCCGUUGAAUUGAGUGUAUCAUG [U31A C36A A52G C76A C95U G124A G140U U145G]	≤ -4.2
GGAUCUUCUCGAUCUAACAAAAAAGACAAAACUGCCACAAAGCUUGAGAGUAUCUUCGGAUGCAGAGGCGGCGGCCUUCGGUGGCGCGAUAGCGGCAACGUUCUCAACUAUGACACGCAAAACGCGUGCUCCGUUGAAUGGAGUUUAUCAUG [U31A C51U A73G C95G]	-3.09
GGAUCUUCUCGAUCUAACAAAAAAGACAAAACUGCCACAAAGCUUGAGAGCCUCUUCCGAUGCAGAGGCGGCAGCCUUCGGUAGCGCGAUAGCGCCAACGUUCUCAACUAUGACACGCAAAACGCGUGCUCCGUUGAAUGGAGUUUAUCAUG [U31A A52C G58C G83A]	-4.11
GGAUCUUCUCGAUCUAACAAAAAAGACAAAACUGCCACAAAGCUUGAGAGCAUCUUCGGAUGCAGAGGCGGCAGCCUUCGGUGGUGCGAUAGCGCCAACGUUCUCAACUAUGAUACGCAAAACGCGUGCUCCGUUGAAUGGAGUUUAUCAUG [U31A C85U C114U]	-1.15
GGAUCUUCUCGAUCUAACAAAAAAGACAAAACUGCCACAAAGCUUGAGAGCAUCUUCGGAUGCAGAGGCGGCCGCCUUCGGUGGCGCGAUAGCGCCAACGUUCUCAACUAUGACACGCAAAACGCGUGCUCCGUUGAAUGGAGUUUAUCAUG [U31A A73C]	-4.13
GGAUCUUCUCGAUCUAACAAAAAAGACAAAACUGCCACUAAGCUUGAGAGCAUCUUCGGAUGCAGAGGCGGCAGCCUUCGGUGGCGCGAUAGGGUCAAUGUUCUCAGCUAUGUCACGCAAAACGCGUGCUCUGUCGAGUGGAGUUUAUCAUG [U31A A39U C93G C95U C99U A107G A113U C132U U135C A138G]	≤ -4.2

Variant	polymerase ribozyme fitness (log ratio)
GGAUCUUCUCGAUCUAACAAAAAAGACAAAACUGCCACAAAGCUUGCGAGCAUCUACGGAUGCAGAGGCGGCAGCCUUCGGUGGCGUGAUAGCGCCAACGUUCUCAACUAUGACACGCAAAACGCGUGCUCCGUUGAAUGGAGUUUAUCAUG [U31A A47C U56A C87U]	-0.397
GGAUCUUCUCGAUCUAACAAAAAAGACAAAAGUGCCACAAUGCUUGAGAGCAUCUUCGGAUGCAGAUGCGGCAGCCUUCCGUGGCCCGAUAGCGCCAACGUUCUCAACUAUGACACGCAAAACGCGUGCUCCGUUGAAUGGAGUUUUUCAUG [U31A C32G A41U G67U G80C G86C A147U]	≤ -4.2
GGAUCUUCUCGAUCUAACAAAAAAGACAAAACUGCCACAAAGCUUGAGGGCAUCUUCGGAUGCAGAGGCGGCAGCCUUCGGUGGCGCGAUAGCGCCAACGUUCUUAACUAUGACACGCAAAACGCGUGCUCCGUUGAAUGGAGUUUAUCAUG [U31A A49G C105U]	-0.707
GGAUCUUCUCGAUCUAACAAAAAAGACAAAACUGCCACAAAGCUUGAGAGCAUCUUCGGAUGCAGAGGCGGCAGCCUUCGGUGGCGCGAUAGAGCCAACGUUCUCAACUAUGACCCGCAAAACGCGUGCUCCGUUGAAUGGAGUUUAUCAUG [U31A C93A A115C]	-1.71
GGAUCUUCUCGAUCUAACAAAAAAGACAAAACUGCCACAAUGCUUGAGAGCAUCUUCGGAUGCAGAGGCGGCAGCCUUCGGUCGCGCGAUAGCGCCAACGUUCUCAACUAGGACACGCAAAACGCGUGCUCCGUUCAAUGGAGUUUAUCAUG [U31A A41U G83C U111G G136C]	≤ -4.2
GGAUCUUCUCGAUCUAACAAAAAAGACAAAACUGCCACAAAGCUUGAGAGCAUCUUCGGAUGCAGUGGCGGCAGCCUUCGGUGGCUCGAUAGCGCCAACCUUCUCAACUAUGACACGCAAAACGCGUGCUCCGUUGAAUGGAGUUUAUCAUG [U31A A66U G86U G100C]	≤ -4.2
GGAUCUUCUCGAUCUAACAAAAAAGACAAAAAUGCCACAAAGCUUGAGAGCAUCUUCGAAUGCAGAGGCGGCAGCCUUCGGUGGCGCGAUAGGGCCAACGUUCUCAACUAUGUCACGCAAAACGCGUGCUCCGUUGAAUGGAGUUUAUCCUG [U31A C32A G59A C93G A113U A150C]	≤ -4.2
GGAUCUUCUCGAUCUAACAAAAAAGACAAAACUGCCACAAAGCUUGAGAGCAUUUUCGGAUGCAGAGGCGGCAGCCUUCGGUUGCGCGAUAGCUCCAACGUUCUCAACUAUGACACGCAAAACACGUGCUCCGUUGAAUGGCGUUUAUCAUG [U31A C54U G83U G94U G124A A142C]	-4.09
GGAUCUUCUCGAUCUAACAAAAAAGACAAAACUGCCACAUAGCUUGAGAGCAUCUUCGGAUGCAGAGGCGGCAGCCUUCGGUGGGGCGAUAGCGCCAACGUUCUCGACUAUGACACGCAAAACGCGUGCUCCGUUGAAUAGAGUUUAUAAUG [U31A A40U C85G A106G G140A C149A]	≤ -4.2
GGAUCUUCUCGAUCUAACAAAAAAGACAAAACUGCCACAAAGCUUGAGAGCAUCUUCGGAUGCAGAGGCGGCAGCUUUCGGUGGCGCGAUAGCGCCAACGUUCUCAACUAUGACAUGCAAAACGCGGGCUCCGUUGAAUGGAGUUUAUCAUG [U31A C76U C116U U127G]	≤ -4.2
GGAUCUUCUCGAUCUAACAAAAAAGACAAAACUGCCACAAAGCUUGAGAGCAUAUUCGGAUGCAGAGGCGGCAGCCUUCGGUGACGCGAUAGCGCUAACGUUCUCAACUAUGACACGCAAAACGCGUGCUCUGUUGAAUGGAGUUUAUCAUG [U31A C54A G84A C96U C132U]	-3.31
GGAUCUUCUCGAUCUAACAAAAAAGACAAAACUGCCACAAAGCUUGAGAGCAUCUUCGGAUGCAGAGGCGGCAGCCUUCGGUGGCGCGAUCGCGCCAACGUUCUCAACUAUGACAAGCAAAACGCGUGCUCCGUUGAAUGGAGUUUAUCAUG [U31A A91C C116A]	-3.88
GGAUCUUCUCGAUCUAACAAAAAAGACAAAACUGCCACAAAGCUUGAGAGCCUCUUCGGAUGCAGAGGCGGCAGCCUUCGGUGGCGCGAUUGCGCCAACGUUCUCAACUAUGACACGCAAAACGCGUGCUCCGUUGAAUGGAGUUUAUCAUG [U31A A52C A91U]	-4.06
GGAUCUUCUCGAUCUAACAAAAAAGACAAAACUGCCACAAAGCUUGAGAGCAUCUUUGGAUGCAGAGGCGGCAGCCUUCGGUGGCGUGGUAGCGCCAACGUUCUCAACUAUGACACACAAAACGCGUGCUCCGUUGAAUGGAGUUUAUCAUG [U31A C57U C87U A89G G117A]	-3.86
GGAUCUUCUCGAUCUAACAAAAAAGACAAAACUGCCACAAGGCUUGAGAGCAUCUUCGGAUGCAGAGGCGGCAGCUUUCGGUGGCGCGAUAGAGCCAACGUUCUCAACUAUGACACGCAAAACGCGUGCUCCGUUAAAUAGAGUUUAUCAUG [U31A A41G C76U C93A G136A G140A]	-3.72
GGAUCUUCUCGAUCUAACAAAAAAGACAAAACUGCCACGAAGCUUGAGAGCAUCUUCGGAUGCAGACGCGGGAGCCUUCGGUGGCGCGAUAGCGCUAACGUUCUCAUCUAUGGCCCGCAAAACGCGUGCUCCGUUGAAUGGAGUUUAACAUG [U31A A39G G67C C72G C96U A107U A113G A115C U148A]	≤ -4.2
GGAUCUUCUCGAUCUAACAAAAAAGACAAAACUGCCACAAAGCUUGAGAGCGUCUUCGGAUGCAGAGGCGGCAGCCUUCGGUGUCGCGAUAGCGCCAACGUUCUCAACUAUGACACGCAAAACGCGUGCUCCGUUGAAUGGAGUUUAUCAUG [U31A A52G G84U]	-0.528
GGAUCUUCUCGAUCUAACAAAAAAGACAAAACUGGCACAAAGCUUGAGAGCAUCUUCGGAUGCAGCGUCGGCAGCCUUCGGUGGCGCGAUAGCGCCAACGUUCUCAACUAUGACACGCAAAACGCGUGCUCCGUUGAAUGGAGUUUAUCAUG [U31A C35G A66C G68U]	-4.17
GGAUCUUCUCGAUCUAACAAAAAAGACAAAACUGCCACAAAGCUUGAGAGCAUCUUCGGAUGCAGAGGCGGCAGCCUUCGGUGGCGCGAUAGCGGCAACGUUCUCAACUAUGACACGCAAAACGCGUGCACCGUUGAAUGGAGUUUAUCAUG [U31A C95G U130A]	-3.43
